Experimental data taken from patent US20230382991A1 (COMMISSARIAT A L ENERGIE ATOMIQUE ET AUX ENERGIES …, published 2023).

Assays:
[1] = biological target: T1, human LILRB1 expressed on stably transduced CHO cells (human, UniProt Q8NHL6 24-650); assay: flow cytometry, same method as FIG. 1B (CHO cells expressing human LILRB1)
T1 construct: whole, on cells; also called hLILRB1; CHO hLILRB1 cell line

[2] = biological target: T2, recombinant human LILRA3-Fc fusion protein (human, UniProt Q8N6C8 24-439); assay: biolayer interferometry (ForteBio), mAb on anti-mouse Fc sensor, LILR-Fc in solution, 1:1 global fit
T2 construct: hLILR-Fc purchased from R&D Systems; also called hLILRA3; hLILRA3-Fc; not shown: Fc part of the fusion bought from R&D Systems
T2 sequence (Q8N6C8 24-439): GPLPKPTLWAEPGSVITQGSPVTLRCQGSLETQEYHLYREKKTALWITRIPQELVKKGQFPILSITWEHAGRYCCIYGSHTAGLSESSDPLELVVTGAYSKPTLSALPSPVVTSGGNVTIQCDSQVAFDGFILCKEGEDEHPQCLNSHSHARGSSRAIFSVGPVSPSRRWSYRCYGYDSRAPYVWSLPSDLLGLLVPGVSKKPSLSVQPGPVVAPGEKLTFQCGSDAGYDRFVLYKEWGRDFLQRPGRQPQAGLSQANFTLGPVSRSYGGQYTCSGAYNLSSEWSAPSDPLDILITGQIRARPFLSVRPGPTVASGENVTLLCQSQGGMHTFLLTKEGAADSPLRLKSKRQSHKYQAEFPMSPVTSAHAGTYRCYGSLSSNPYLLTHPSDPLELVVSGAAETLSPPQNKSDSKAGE

[3] = biological target: T3, cynomolgus macaque LILRB1.2-Fc fusion protein (cynomolgus macaque; human); assay: as above
T3 construct: extracellular domain; Produced in HEK293T cells; also called mLILRB1.2; mLILRB1.2-Fc

[4] = biological target: T4, cynomolgus macaque LILRB1.1-Fc fusion protein (cynomolgus macaque; human); assay: as above
T4 construct: extracellular domain; Produced in HEK293T cells; also called mLILRB1.1; mLILRB1.1-Fc

[5] = biological target: T5, cynomolgus macaque LILRB2.1-Fc fusion protein (cynomolgus macaque; human); assay: as above
T5 construct: extracellular domain; Produced in HEK293T cells; also called mLILRB2.1; mLILRB2.1-Fc

[6] = biological target: T6, recombinant human LILRA1-Fc fusion protein (human, UniProt O75019 17-461); assay: as above
T6 construct: hLILR-Fc purchased from R&D Systems; also called hLILRA1; hLILRA1-Fc; not shown: Fc part of the fusion bought from R&D Systems; captured by anti-human immunoglobulin
T6 sequence (O75019 17-461): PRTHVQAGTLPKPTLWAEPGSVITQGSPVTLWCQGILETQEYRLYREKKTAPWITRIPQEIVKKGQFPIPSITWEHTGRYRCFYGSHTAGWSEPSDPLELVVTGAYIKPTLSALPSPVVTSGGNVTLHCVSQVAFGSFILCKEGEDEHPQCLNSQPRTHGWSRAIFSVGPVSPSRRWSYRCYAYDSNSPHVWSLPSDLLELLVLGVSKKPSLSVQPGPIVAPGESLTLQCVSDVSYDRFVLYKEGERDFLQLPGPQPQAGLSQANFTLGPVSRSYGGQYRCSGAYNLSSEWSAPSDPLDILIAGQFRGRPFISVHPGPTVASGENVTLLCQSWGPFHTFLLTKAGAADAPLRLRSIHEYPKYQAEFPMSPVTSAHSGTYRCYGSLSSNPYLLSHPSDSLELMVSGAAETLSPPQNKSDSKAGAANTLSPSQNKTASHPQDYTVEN

[7] = biological target: T7, recombinant human LILRB1-Fc fusion protein (human, UniProt Q8NHL6 24-458); assay: as above
T7 construct: hLILR-Fc purchased from R&D Systems; also called hLILRB1-Fc; hLILRB1; not shown: Fc part of the fusion bought from R&D Systems; detected with anti-human IgG
T7 sequence (Q8NHL6 24-458): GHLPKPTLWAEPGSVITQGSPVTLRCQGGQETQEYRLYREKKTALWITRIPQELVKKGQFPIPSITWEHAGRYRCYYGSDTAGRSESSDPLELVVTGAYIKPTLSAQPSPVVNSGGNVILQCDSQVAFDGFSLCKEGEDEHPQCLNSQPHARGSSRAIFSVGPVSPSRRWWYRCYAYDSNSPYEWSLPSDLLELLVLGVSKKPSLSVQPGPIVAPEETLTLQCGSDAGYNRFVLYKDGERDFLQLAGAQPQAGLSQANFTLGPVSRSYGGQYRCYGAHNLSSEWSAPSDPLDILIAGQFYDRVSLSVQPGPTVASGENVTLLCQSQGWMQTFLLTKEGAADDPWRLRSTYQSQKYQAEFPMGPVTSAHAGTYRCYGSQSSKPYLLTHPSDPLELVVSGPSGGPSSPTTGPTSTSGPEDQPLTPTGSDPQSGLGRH

[8] = biological target: T8, cynomolgus macaque LILRB2.2-Fc fusion protein (cynomolgus macaque; human); assay: as above
T8 construct: extracellular domain; Produced in HEK293T cells; also called mLILRB2.2; mLILRB2.2-Fc

[9] = biological target: T9, recombinant human LILRA5-Fc fusion protein (human, UniProt A6NI73 42-268); assay: EIA on hLILR-Fc captured by goat anti-human Ig on the plate; AChE-labelled goat anti-mouse antibody; absorbance (axis printed 'DO 141nm'); no blank curve on the sheet
T9 construct: not shown: Fc part of the fusion bought from R&D Systems
T9 sequence (A6NI73 42-268): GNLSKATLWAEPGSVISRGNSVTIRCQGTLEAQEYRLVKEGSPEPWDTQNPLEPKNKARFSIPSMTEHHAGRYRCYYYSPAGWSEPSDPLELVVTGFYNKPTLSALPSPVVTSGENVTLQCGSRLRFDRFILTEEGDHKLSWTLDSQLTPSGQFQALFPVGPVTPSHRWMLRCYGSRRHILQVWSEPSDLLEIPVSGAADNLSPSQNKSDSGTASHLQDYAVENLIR

[10] = biological target: T10, recombinant human LILRB4-Fc fusion protein (human, UniProt Q8NHJ6 22-259); assay: as above
T10 construct: not shown: Fc part of the fusion bought from R&D Systems

[11] = biological target: T11, recombinant human LILRB3-Fc fusion protein (human, UniProt O75022 24-443); assay: as above
T11 construct: not shown: Fc part of the fusion bought from R&D Systems
T11 sequence (O75022 24-443): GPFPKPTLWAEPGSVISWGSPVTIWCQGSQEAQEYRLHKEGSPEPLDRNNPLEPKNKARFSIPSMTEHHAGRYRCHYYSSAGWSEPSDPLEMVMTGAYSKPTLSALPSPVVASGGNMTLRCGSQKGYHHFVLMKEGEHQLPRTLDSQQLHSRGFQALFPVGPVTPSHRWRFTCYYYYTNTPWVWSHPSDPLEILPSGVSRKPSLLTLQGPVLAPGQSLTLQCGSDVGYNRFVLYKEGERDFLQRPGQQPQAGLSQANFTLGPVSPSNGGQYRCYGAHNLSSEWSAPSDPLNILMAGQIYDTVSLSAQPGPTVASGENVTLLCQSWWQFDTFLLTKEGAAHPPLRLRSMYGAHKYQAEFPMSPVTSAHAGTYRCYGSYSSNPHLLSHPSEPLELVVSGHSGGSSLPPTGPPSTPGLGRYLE

[12] = biological target: T12, recombinant human LILRA4-Fc fusion protein (human, UniProt P59901 24-446); assay: as above
T12 construct: not shown: Fc part of the fusion bought from R&D Systems
T12 sequence (P59901 24-446): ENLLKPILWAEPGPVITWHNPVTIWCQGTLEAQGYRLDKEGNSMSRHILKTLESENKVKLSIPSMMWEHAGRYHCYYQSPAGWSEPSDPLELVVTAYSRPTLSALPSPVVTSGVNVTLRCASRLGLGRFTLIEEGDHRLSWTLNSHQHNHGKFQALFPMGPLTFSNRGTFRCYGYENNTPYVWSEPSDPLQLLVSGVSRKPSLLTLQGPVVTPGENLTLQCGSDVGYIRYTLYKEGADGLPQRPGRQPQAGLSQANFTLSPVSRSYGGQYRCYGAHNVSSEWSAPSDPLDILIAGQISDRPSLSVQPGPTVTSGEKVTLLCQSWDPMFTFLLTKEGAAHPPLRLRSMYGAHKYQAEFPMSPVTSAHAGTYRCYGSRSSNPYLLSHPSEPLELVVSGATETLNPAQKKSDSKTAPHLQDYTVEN

[13] = biological target: T13, recombinant human LILRA2-Fc fusion protein (human, UniProt Q8N149 24-449); assay: as above
T13 construct: not shown: Fc part of the fusion bought from R&D Systems
T13 sequence (Q8N149 24-449): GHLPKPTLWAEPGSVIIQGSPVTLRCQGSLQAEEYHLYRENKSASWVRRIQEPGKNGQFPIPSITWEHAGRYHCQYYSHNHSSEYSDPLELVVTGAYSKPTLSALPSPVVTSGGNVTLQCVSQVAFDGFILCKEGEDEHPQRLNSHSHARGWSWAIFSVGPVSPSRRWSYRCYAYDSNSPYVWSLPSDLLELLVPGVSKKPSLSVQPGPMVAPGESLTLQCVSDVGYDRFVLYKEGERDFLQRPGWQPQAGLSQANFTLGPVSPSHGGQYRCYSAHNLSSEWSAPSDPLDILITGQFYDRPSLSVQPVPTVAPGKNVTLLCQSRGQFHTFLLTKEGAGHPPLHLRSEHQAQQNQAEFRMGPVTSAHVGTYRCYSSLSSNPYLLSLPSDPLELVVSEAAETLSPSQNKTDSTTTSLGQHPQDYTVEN

[14] = biological target: T14, recombinant human LILRB5-Fc fusion protein (human, UniProt O75023 24-458); assay: as above
T14 construct: not shown: Fc part of the fusion bought from R&D Systems
T14 sequence (O75023 24-458): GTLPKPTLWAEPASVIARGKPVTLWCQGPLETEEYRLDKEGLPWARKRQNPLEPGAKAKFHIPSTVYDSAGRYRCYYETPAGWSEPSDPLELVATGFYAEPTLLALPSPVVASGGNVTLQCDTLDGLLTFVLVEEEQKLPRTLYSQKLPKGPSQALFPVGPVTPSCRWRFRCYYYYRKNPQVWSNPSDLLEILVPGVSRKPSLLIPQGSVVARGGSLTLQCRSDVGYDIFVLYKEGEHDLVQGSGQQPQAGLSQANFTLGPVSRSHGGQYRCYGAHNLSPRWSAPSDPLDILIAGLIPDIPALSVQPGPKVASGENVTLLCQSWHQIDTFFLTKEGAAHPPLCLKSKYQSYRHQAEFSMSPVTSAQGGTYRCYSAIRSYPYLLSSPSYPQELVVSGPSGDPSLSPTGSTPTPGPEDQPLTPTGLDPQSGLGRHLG

[15] = biological target: T15, recombinant human LILRB2-Fc fusion protein (human, UniProt Q8N423 22-457); assay: biolayer interferometry (ForteBio), mAb on anti-mouse Fc sensor, LILR-Fc in solution, 1:1 global fit
T15 construct: hLILR-Fc purchased from R&D Systems; also called hLILRB2-Fc; hLILRB2; not shown: Fc part of the fusion bought from R&D Systems; detected with anti-human IgG
T15 sequence (Q8N423 22-457): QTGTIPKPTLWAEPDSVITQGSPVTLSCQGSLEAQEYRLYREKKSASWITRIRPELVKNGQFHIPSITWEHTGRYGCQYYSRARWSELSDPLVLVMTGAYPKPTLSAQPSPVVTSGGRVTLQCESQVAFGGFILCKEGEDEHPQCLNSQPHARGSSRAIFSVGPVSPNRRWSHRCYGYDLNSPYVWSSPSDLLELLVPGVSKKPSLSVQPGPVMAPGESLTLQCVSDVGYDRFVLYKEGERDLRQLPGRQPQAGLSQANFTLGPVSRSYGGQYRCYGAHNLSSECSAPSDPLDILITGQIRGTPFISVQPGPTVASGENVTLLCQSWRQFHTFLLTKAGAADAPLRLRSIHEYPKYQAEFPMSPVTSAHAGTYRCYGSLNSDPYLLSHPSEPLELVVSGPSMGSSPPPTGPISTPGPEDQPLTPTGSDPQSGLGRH

T1 sequence (Q8NHL6 24-650): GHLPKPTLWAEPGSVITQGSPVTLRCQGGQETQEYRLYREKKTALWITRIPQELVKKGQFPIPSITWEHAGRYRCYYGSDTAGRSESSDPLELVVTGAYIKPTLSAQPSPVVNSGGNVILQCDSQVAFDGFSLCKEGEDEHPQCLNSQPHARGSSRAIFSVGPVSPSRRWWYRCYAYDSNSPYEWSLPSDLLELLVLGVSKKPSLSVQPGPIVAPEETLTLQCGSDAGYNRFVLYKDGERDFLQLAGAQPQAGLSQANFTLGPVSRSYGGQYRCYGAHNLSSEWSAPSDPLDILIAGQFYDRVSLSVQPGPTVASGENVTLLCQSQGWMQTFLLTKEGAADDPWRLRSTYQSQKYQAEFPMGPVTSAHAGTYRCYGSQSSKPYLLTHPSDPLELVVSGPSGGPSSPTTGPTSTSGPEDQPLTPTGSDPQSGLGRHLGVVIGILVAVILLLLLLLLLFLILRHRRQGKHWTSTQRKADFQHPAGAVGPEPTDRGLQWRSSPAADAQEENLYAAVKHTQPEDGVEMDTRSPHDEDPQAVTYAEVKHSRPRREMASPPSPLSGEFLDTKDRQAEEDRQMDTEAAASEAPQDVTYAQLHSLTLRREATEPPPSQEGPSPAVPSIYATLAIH

| Binder | binding result [1] | Kd [2] | Kd [3] | Kd [4] | Kd [5] | Kd [6] | Kd [7] | Kd [8] | binding result [9] | binding result [10] | binding result [11] | binding result [12] | binding result [13] | binding result [14] | Kd [15] |
| --- | --- | --- | --- | --- | --- | --- | --- | --- | --- | --- | --- | --- | --- | --- | --- |
| BF14 humanized antagonist antibody of Family AB2 (antibody, V domains shown) VH: QVQLVESGGGVVQPGRSLRLSCAASGFTFSDYGMHWVRQAPGKGLEWVAYISSGSSTSYYADTVKGRFTISRDDSKNTLYLQMNSLRAEDTAVYYCARPGSNWDVYYAMDYWGQGTLVTVSS VL: DIQLTQSPSSLSASVGDRVTITCRASQSVSTSSYSYMHWYQQKPGKAPKLLIKNASNLESGVPSRFSGSGSGTDFTLTISSLQPEDFATYYCQHSWEIPFTFGPGTKVDIK | binds | – | – | – | – | – | – | – | – | – | – | – | – | – | – |
| B1.2.2 monoclonal antibody (antibody, V domains shown, Mouse monoclonal antibody purified from hybridoma supernatant (immunisation with mLILRB1.2-Fc); also called B1.2.2 mAb; clone 20G10) VH: EVQLVESGGGLVKPGGSLKLSCAASGFTFSDYGMHWVRQAPEKGLEWVAYISSGSSTSYYADTVKGRFTISRDDAKNTLFLQMTSLRSEDTAMYYCARPGSNWDVYYAMDYWGQGTSVTVSS VL: DIVLTQSPASLAVSLGQRATISCRASQSVSTSSYSYMHWYQQKPGQPPKLLIKNASNLESGVPARFSGSGSGTDFTLNIHPVEEEDTATYYCQHSWEIPFTFGGGTKLEIK | – | 3.2 nM | 0.12 nM | 3.6 nM | 0.48 nM | 0.37 nM | 0.87 nM | 0.071 nM | no binding (tested: 10 µg/ml) | no binding (tested: 10 µg/ml) | no binding (tested: 10 µg/ml) | no binding (tested: 10 µg/ml) | no binding (tested: 10 µg/ml) | no binding (tested: 10 µg/ml) | – |
| B1.2.1 monoclonal antibody (antibody, V domains shown, Mouse monoclonal antibody purified from hybridoma supernatant (immunisation with mLILRB1.2-Fc); also called B1.2.1 mAb) VH: EVQLVESGGGLVQPKGSLKLSCAASGFTFNTHAMHWVRQAPGKGLEWVARIRSKSSNYATFYADSVKDRFTISRDDSQSMLYLQMNNLKTEDTAIYFCVMVYYGNSPYYSMDYWGQGTSVTVSS VL: NIVMTQSPKSMSMSVGERVTLSCKASENVGTYVSWYQQKPEQSPKLLIYGASNRYTGVPDRFTGSGSATDFTLIINNIQAEDLADYHCGQSYSSPLTFGAGTKLELK | – | 1.3 nM | 0.014 nM | 0.0039 nM | – | 0.73 nM | 0.53 nM | 2.9 nM | no binding (tested: 10 µg/ml) | no binding (tested: 10 µg/ml) | no binding (tested: 10 µg/ml) | no binding (tested: 10 µg/ml) | no binding (tested: 10 µg/ml) | no binding (tested: 10 µg/ml) | 0.14 nM |
